Source: article PMC7252695

Legend:
[1] = target: T1, GST-TEK (Arabidopsis thaliana) (UniProt Q9SJG4); test: EMSA; conditions: EMSA according to manufacturer's instructions (Thermo Scientific); buffer, salt, pH and temperature not stated
T1 sequence: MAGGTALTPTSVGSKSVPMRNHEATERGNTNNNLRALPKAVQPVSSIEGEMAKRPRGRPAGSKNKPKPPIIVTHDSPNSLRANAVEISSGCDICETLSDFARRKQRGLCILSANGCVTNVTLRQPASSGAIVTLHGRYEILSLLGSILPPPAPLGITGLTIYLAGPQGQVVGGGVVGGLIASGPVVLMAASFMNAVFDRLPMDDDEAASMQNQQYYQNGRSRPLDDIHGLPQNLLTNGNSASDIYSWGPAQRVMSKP

[2] = target: T1, GST-TEK (Arabidopsis thaliana); test: competition; conditions: EMSA according to manufacturer's instructions (Thermo Scientific); buffer, salt, pH and temperature not stated

Sequence	binding [1]	binding [2]
GCCCATATATAGTATCTTCCGCTGTTGTATATCTTGAGCAGCTTGAGGAAGCCTTTGCAAAAAAATAGAGTGAATTTTGAGTACAGTATGAATATCATTCAACAACATTTTCCATCCAAGCGACTTAGAAAATAAAATTTTGTCAGCTACCTTAAACTGTGTTTACGTCCTAAAAATTTGCACCAA (double strand) [CalS5 P11 fragment]	binds	
GCCCATATATAGTATCTTCCGCTGTTGTATATCTTGAGCAGCTTGAGGAAGCCTTTGCAAAAAAATAGAGTGAATTTTGAGTACAGTATGAATATCATTCAACAACATTTTCCATCCAAGCGACTTAGAAAATAAAATTTTGTCAGCTACCTTAAACTGTGTTTACGTCCTAAAAATTTGCACCAA (double strand) [CalS5 P11 unlabeled competitor]		binds
